T1: amphyphisin SH3 (AMPH_HUMAN), P49418
T1 chain: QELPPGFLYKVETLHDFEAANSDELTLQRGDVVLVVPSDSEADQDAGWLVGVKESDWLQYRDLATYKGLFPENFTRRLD


Key:
[1] = target: T1, amphyphisin SH3 (AMPH_HUMAN), P49418; test: SPOT array
[2] = target: endophilin SH3 (SH3G2_HUMAN), Q99962; test: SPOT array

normalised SPOT signal, Boehringer light units (BLU); mean over the file's lines of this peptide [1]	normalised SPOT signal, Boehringer light units (BLU); mean over the file's lines of this peptide [2]	Binder
241	3050	LEFPPRRPFARRRM [O00513 852-865]
1410	93.1	LETSLKRPKRPLFN [Q96RW7 67-80]
4.7	277	LGKVIRRPPLTEKL [Q9NRD6 13-26]
1400	4020	APLLPPRPPPLPPV [Q9NR05 56-70]
12.7	168	LFFELRRPPQHGVL [Q9H6N9 50-63]
62	102	LGASPAKPPSPGAP [Q8WXD9 1320-1334]
31.6	43.4	LEIPPPKPPAPEMN [Q96F28 217-231]
459	538	LFIIPPKPPGRPQG [P81489 12-26]
218	245	LGLELGRPVRFLYE [P13942 112-125]
34.3	122	LGGSPRRPSGRKGS [Q92729 834-847]
1100	4540	LDPLPRRPPAGRRG [BAC04326 52-66]
68.8	147	LEQLLLRPERPGDT [O43157 127-140]
10.6	54.4	LDSILRRPYVTSQP [Q9Y5K1 339-352]
43.1	42.5	LEQAFRRPNVNLTS [Q8WVX9 331-344]
22.2	1050	LGEVPRRPASRGVP [Q969P6 16-29]

The remaining lines, values behind:

Binder	normalised SPOT signal, Boehringer light units (BLU); mean over the file's lines of this peptide [1]	normalised SPOT signal, Boehringer light units (BLU); mean over the file's lines of this peptide [2]
APFLPPKPPPPIIV [Q9BYZ6 230-244]	35.1	1320
LEESPWKPPTYLFS [Q9P239 478-492]	39.8	53.3
LEDSPKRPKEAENP [P51858 162-175]	12.6	2.6
LDSALLRPGRIDRK [P47210 301-314]	1620	117
LGDSLRRPQLRLWS [P41440 258-271]	14.9	6
LEYVLFRPNRRYNQ [Q15018 147-160]	451	54.6
LFNLIKRPDDEQRQ [Q9P260 301-314]	16.2	34
LEIPPPKPPAPLLH [Q8WXI9 364-378]	36.7	712
LGHPPAKPPLPPGP [Q96QH2 497-511]	64.4	264
LELALKRPRPPVLS [Q9ULJ3 268-281]	29.6	129
LGLLFRRPEALQVG [Q13290 172-185]	12.2	61.1
LFQPPRRPGLGTVG [Q9HCK5 75-88]	1500	1840
LGKIPLKPPPLELL [O15504 407-421]	72.5	61.2
LERRLKRPRTQGVV [Q9H9E5 251-264]	34.4	20
LFPPLFRPQRPHSA [Q9ULW2 164-177]	5720	10200
APEPPPRPPPALSP [Q96NP9 14-28]	962	2330

Source: PMC314469, “Protein Interaction Networks by Proteome Peptide Scanning” (PLoS Biology, 2004)
